The values that follow are results of earlier work, collected in article PMC2790341.

Data set [1] has as its target NRP1 (Homo sapiens) (UniProt O14786).
In data set [2] the target is VEGFR1 (Homo sapiens) (UniProt P17948).
The target in data set [3] is VEGFR2 (Homo sapiens) (UniProt P35968).
UniProt P35968, sequence (P35968 20-1356): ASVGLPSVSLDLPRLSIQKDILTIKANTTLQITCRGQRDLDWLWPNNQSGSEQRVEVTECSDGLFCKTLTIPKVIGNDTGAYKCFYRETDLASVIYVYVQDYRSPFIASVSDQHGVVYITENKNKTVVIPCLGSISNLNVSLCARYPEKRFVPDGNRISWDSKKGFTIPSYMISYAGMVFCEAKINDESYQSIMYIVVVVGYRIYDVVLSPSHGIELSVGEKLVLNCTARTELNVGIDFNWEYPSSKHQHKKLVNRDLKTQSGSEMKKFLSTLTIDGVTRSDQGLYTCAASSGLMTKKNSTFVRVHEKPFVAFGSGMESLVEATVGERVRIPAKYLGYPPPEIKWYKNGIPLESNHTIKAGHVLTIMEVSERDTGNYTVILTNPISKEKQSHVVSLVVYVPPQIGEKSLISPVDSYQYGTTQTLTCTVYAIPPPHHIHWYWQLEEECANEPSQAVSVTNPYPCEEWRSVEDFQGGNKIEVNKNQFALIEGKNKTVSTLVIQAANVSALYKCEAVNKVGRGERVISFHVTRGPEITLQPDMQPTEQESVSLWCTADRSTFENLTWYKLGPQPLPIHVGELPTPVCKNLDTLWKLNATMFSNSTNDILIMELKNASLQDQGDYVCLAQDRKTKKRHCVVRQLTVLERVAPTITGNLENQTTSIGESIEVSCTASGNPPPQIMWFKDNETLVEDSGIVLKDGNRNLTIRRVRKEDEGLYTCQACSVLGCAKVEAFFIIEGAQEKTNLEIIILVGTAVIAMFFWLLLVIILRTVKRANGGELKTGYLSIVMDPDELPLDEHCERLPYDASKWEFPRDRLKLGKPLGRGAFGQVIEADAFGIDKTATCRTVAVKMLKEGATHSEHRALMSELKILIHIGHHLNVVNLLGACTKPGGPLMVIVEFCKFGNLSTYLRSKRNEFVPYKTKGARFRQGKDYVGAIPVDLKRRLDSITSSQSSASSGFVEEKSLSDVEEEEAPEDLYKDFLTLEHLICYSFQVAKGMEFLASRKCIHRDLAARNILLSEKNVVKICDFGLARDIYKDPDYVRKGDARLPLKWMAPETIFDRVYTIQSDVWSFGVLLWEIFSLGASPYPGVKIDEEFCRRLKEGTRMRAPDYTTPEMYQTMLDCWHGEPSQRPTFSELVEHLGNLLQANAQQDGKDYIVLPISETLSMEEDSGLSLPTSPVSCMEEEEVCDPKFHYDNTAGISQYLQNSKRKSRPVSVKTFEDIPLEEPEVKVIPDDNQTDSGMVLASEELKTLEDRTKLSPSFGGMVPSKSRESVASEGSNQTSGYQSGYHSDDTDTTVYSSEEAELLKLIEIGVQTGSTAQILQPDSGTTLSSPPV

UniProt O14786, sequence (O14786 22-923): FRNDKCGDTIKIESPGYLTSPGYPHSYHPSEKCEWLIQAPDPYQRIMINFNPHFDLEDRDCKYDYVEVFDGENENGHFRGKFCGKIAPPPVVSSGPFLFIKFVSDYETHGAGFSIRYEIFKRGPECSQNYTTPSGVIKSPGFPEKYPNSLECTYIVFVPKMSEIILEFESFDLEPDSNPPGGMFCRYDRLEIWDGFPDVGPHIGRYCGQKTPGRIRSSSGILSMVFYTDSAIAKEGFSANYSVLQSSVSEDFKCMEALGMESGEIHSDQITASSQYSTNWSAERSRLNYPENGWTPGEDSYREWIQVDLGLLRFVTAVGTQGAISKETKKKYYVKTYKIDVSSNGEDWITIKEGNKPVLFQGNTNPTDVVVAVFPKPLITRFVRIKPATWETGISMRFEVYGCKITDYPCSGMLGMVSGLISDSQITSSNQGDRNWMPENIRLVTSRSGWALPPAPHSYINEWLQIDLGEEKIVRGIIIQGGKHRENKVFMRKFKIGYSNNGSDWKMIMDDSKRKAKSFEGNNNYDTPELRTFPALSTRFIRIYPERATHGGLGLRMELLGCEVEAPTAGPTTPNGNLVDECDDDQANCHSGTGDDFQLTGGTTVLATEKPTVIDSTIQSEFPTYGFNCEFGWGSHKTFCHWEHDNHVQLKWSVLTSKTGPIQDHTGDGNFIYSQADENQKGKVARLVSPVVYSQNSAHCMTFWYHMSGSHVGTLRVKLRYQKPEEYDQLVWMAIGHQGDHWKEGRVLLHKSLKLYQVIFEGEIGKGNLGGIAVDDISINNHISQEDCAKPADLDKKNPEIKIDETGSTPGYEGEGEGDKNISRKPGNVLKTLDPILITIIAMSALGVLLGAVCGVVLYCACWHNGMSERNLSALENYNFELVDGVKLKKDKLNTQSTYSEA
UniProt P17948, sequence (P17948 27-1338): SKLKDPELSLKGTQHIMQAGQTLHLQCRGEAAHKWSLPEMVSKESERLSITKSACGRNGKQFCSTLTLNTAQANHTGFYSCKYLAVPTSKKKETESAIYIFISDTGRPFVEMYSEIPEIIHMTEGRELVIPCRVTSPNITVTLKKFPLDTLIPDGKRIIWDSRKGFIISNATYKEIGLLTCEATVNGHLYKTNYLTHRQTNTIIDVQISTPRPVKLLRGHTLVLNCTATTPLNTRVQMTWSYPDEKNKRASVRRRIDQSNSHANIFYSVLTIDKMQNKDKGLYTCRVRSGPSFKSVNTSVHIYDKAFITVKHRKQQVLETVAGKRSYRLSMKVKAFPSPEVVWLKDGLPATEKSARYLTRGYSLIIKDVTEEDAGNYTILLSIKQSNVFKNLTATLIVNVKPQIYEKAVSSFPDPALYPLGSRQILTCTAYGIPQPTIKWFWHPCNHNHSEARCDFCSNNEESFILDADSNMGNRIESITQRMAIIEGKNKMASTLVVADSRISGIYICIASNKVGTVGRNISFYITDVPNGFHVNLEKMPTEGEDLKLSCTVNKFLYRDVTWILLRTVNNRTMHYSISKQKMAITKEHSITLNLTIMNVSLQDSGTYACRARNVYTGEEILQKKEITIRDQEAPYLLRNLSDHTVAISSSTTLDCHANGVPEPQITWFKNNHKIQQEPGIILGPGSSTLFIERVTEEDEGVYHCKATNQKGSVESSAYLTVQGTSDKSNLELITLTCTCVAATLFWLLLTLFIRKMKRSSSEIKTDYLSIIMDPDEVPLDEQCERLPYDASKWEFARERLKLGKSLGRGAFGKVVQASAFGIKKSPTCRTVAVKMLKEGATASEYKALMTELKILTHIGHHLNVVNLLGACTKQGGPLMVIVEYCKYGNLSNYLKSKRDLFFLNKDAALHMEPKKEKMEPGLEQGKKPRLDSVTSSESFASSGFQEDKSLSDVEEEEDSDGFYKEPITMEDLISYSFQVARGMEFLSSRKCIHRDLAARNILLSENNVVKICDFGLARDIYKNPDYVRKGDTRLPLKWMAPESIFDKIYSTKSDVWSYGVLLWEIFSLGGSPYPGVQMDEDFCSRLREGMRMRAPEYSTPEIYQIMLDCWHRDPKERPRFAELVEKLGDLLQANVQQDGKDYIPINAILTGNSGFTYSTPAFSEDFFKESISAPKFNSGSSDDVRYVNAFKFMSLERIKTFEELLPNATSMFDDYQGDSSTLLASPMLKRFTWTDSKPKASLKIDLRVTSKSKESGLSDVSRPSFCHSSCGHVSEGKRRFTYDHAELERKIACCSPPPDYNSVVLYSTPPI

A word on the Kd: it is the free concentration of one partner at which half of the binding sites on the other are occupied at equilibrium, for simple one-to-one binding. Consider VEGF165 (from UniProt P15692), for which the Kd in data set [1] was 0.312 nM. Regarding VEGF (from UniProt P15692), the Kd is 0.033 nM in data set [2] and 0.1 nM in data set [3].
